According to the DeepSol protein solubility set:

Test: soluble on expression in E. coli; label from the status in PepcDB or PDB records

Sequence: MFQQQKDWETRENAFAAFTMGPLTDFWRQRDEAEFTGVDDIPVRFVRFRAQHHDRVVVICPGRIESYVKYAELAYDLFHLGFDVLIIDHRGQGRSGRLLADPHLGHVNRFNDYVDDLAAFWQQEVQPGPWRKRYILAHSMGGAISTLFLQRHPGVCDAIALTAPMFGIVIRMPSFMARQILNWAEAHPRFRDGYAIGTGRWRALPFAINVLTHSRQRYRRNLRFYADDPTIRVGGPTYHWVRESILAGEQVLAGAGDDATQTLLLQAEEERVVDNRMHDRFCELRTAAGHPVEGGRPLVIKGAYHEILFEKDAMRSVALHAIVDFFNRHNSPSGNRSTEV
- soluble on expression in E. coli: not soluble

Sequence: MTSIIKLKVFSGAKDEGPLCYLLQVDGDYILLDCGWDERFGLQYFEELKPFIPKISAVLISHPDPLHLGGLPYLVSKCGLTAPVYATVPVYKMGQMFIYDMVYSHLDVEEFEHYTLDDVDTAFEKVEQVKYNQTVVLKGDSGVHFTALPAGHMLGGSIWRICRVTGEDIVYCVDFNHKKERHLNGCSFDNFNRPHLLITGAHHISLPQMRRKDRDEQLVTKILRTVRQKGDCMIVIDTAGRVLELAHLLDQLWSNADAGLSTYNLVMMSHVASSVVQFAKSQLEWMNEKLFKYDSSSARYNPFTLKHVTLCHSHQELMRVRSPKVVLCSSQDMESGFSRELFLDWCSDPRNGVILTARPASFTLAAKLVNMAERANDGVLKHEDRLISLVVKKRVALEGEELLEYKRRKAERDAEETRLRMERARRQAQANESDDSDDDDIAAPIVPRHSEKDFRSFDGSENDAHTFDIMAKWDNQQKASFFKTTKKSFPMFPYIEEKVKWDDYGEVIKPEDYTVISKIDLRKGQNKDEPVVVKKREEEEEVYNPNDHVEEMPTKCVEFKNRVEVSCRIEFIEYEGISDGESTKKLLAGLLPRQIIVVHGSRDDTRDLVAYFADSGFDTTMLKAPEAGALVDASVESFIYQVALSDALLADIQFKEVSEGNSLAWIDARVMEKEAIDNMLAVGTSNLMIDDKNREEDVNDQEENGATEGEGNAEPMEIGENGSQESLAISESGKEVENGHTNDSRTKKGTKGKIRGNLILDPLPKRLIPIHQAVFVNDPKLSDFKNLLTDKGYKAEFLSGTLLINGGNCSIRRNDTGVFQMEGAFTKDYYKLRRLFYDQFAVL
- soluble on expression in E. coli: not soluble

Sequence: MCFWPVWNGKHCPHSTGMPATLPGHRKPTFSWPVSISVMKMPDTHTMVATVSRRILPGKPRQCFSLAVLILPLLEHGGYAITELTVTRRNTCGYSFVSGCPTVFSSRDLVGSGEEVRQARDTFLYINTDPTQGWIHYEPAAFSAGAQNKHLPMASLTGSGKHPAAARLNPVSRGPQFITVSLIIALLGTAWYGWQYYERWQTEKAAQAAVARQATEERITPPWPGLPETDAFIRGCADIWTSLPLSAAGWRYSLAECSTDGGSGNLRASYTNTAGATVTDFIRRISDMTDSRPFIVMPEGKTGGIGLPVTFRLSENAVTVDALPETAVLQERLTSLAQSMQLKLDWQEVNNSVTDENGQIIQPPWKEYDLQIQTTLPAHHLAERLKEPSVRFISVTRQLENGRFHYQFTGKYYARLEHHHHHH
- soluble on expression in E. coli: not soluble

Sequence: MGSDKIHHHHHHMKISERQKDLLKEIGNIGAGNAATAISYMINKKVEISVPNVEIVPISKVIFIAKDPEEIVVGVKMPVTGDIEGSVLLIMGTTVVKKILEILTGRAPDNLLNLDEFSASALREIGNIMCGTYVSALADFLGFKIDTLPPQLVIDMISAIFAEASIEELEDNSEDQIVFVETLLKVEEEEEPLTSYMMMIPKPGYLVKIFERMGIQE
- soluble on expression in E. coli: not soluble

Sequence: MLSFVIPAHDEAALIGDTLQCLHACAQAMQLDHEVIVVADACEDATAAIARSHGAQVLEVLEVQLRHIAATRNAGAQAAQGEHLLFLDADTSINPQVVGAALAALDAGAVGGGARVHLQGKRVWSERVAQAVFGWFFRVSGIAPGCFLFCTRAAFVSAGGFDTRYYAGEDVALSRALARCGRFVILRQTVHTSDRKLRSFSKREHLGLLLRFLWRGRRMLQTRDALGFWYQRRRLEHHHHHH
- soluble on expression in E. coli: not soluble

Sequence: EQMEGMLCRKQEMEAFGKKAANRSWQNVYCVLRRGSLGFYKDAKAASAGVPYHGEVPVSLARAQGSVAFDYRKRKHVFKLGLQDGKEYLFQAKDEAEMSSWLRVVNAAIA
- soluble on expression in E. coli: soluble

Sequence: MSLSSRYTPSEMAQALGAGLLSFPVTHFDADMAFDEPAYRSNLDWLSSHPAAGLFAAGGTGELFSLTLDEVDRAVRAAVTQTAGRMPVIAPAGYGTAIAVAMAQAAERNDADGILLFPPYLTECDADGVAEHVERVCKATSLGVIVYGRANARLDDVALARVAERCPNLVGYKDGIGDVERMTRIYARLGDRLLYVGGLPTAETFALPYLEMGVTTYSSAIFNFLPEWALSFYAAVRARDHATIYRELNDFVLPYTVLRNRRAGYAVSIVKAGMRAVGRPAGPVRTPLADLTEDEFAQLTQLIGGRREGHHHHHH
- soluble on expression in E. coli: not soluble

Sequence: MSNWPYPHIVAHRGGGKLAPENTLAAIDVGARYGHTMIEFDAKLSKDGEIFLLHDDNLERTSNGWGVAGELNWQDLLRVDAGGWFSGEFKGEPLPLLSQVAERCRKHGMMANIEIKPTTGSGRLTGRVVALAARELWAGMTPPLLSSFEIEALEAAQAAAPELPRGLLLDKWREDWRELTTRLGCVSLHLNHKLLDETRVQEIKAAGLRILVYTVNQPQRAAELLRWGVDCICTDRIDDIGPHFQF
- soluble on expression in E. coli: not soluble

Sequence: MHVAIIGGGISGIAAAFYLAQQKVSIDIFESENQIGGRAGSDFLQERRVDFGGKNIGRNYLLFREFARAYGDPAFEYFGINTSQLINGRIVSISREGSAWLNLLKIIRLCGLRKGITRLYPHIQAILNDRSQGVLCSDYFRALSENFDHLTLDRYLNQRCIDRVIRPITIRMNGAEPEECYPGNFGSNLALALDSFEQLTLGMYNLLDTFIASHRQESSFRILTGHRVTSIAKDQDKFRINYLNGAVSGTGSYDRIISALPAYSLAELLQDELPEASRLLNKISYFPVSIAIVKYRDEVFPQNRRAMVFDRNSPLSNAGAYGLNDLDIVRYTFSGKASRAAISEHSTPEEVISLGEKTASPYFSIKDNPKEAFVFRYFPKGLCAYSPKHHLLLEEIDRLVNRLSGFGTTGDYRRGASIEACFRAAKECIEKVVGDGSLEHHHHHH
- soluble on expression in E. coli: soluble

Sequence: TKEGMLHYKAGTSYLGKEHWKTCFVVLSNGILYQYPDRTDVIPLLSVNMGGEQCGGCRRANTTDRPHAFQVILSDRPCLELSAESEAEMAEWMQHLCQAVSKGVIPQGVAPS
- soluble on expression in E. coli: soluble

Sequence: MGSDKIHHHHHHMTISNQELTLTPLRGKSGKAYIGTYPNGERVFVKYNTTPILPALAKEQIAPQLLWARRTSNGDMMSAQEWLDGRTLTKEDMGSKQIIHILLRLHKSRPLVNQLLQLGYKIENPYDLLMDWEKQTPIQIRENTYLQSIVTELKRSLPEFRTEVATIVHGDIKHSNWVITTSGLIYLVDWDSVRLTDRMYDVAYILSHYIPQKHWKDWLSYYGYKDNEKVWSKIIWYGQFSYLSQIIKCFDKRDMEHVNQEIYELRKFRELIKKHNAS
- soluble on expression in E. coli: not soluble

Sequence: MTVIETPVKSVICMTSLQLSNFIKLDALSHVVGITSTRHLFNKEMNERLKQGKTAKIGIEGNFDNEVIMSVNPDVIFISPFKRGGYDAMREVGIPLVPHLGYKEMTPLGQAEWIKFIGLFIGEEETANRKFAAIEKHYNELKERVAHVKKRPVLEHHHHHH
- soluble on expression in E. coli: not soluble

Sequence: MKKRALVSVSDKTGVVEFVKGLLEQGIEVISTGGTKKLLEENGLQVIGISEVTGFPEIMDGRVKTLHPNIHGGLLAVRDNETHVAQMNELGMEPIDFVVVNLYPFKETIAKPDVTFADAIENIDIGGPTMIRSAAKNHKFVSVIVDPVDYDVVLAELKENGEVAEETKRKLAAKVFRHTAAYDALISNYLTEQMGEESPETLTVTFEKKQDLRYGENPHQKATFYKAPFAATSSVAYAEQLHGKELSYNNINDADAALSIVKEFTEPAVVAVKHMNPCGVGVGTDIHEAYTRAYEADPVSIFGGIIAANREIDKATAEKLHEIFLEIIIAPSFSKEALEVLQSKKNLRLLTVNIEKATSASKKLTSVQGGLLVQEEDTLSLDESTISIPTKREPSEQEWKDLKLAWKVVKHVKSNAIVLAKDDMTIGVGAGQMNRVGSAKIAITQAGEKAQGSALASDAFFPMPDTVEEAAKAGITAIIQPGGSIRDEDSIKVADTYGIAMVFTGVRHFKH
- soluble on expression in E. coli: not soluble

Sequence: MSLSEAGYPRKVMQHAEELHERILSFDSRITVPLDFGTTGNEVDKDGPGQLDLVKAGRGRLSGAALAIFGWPEMWNGPNAPHKPTPGFVDEARHQQEIRYKILTGMVRDFPNQVGIAYSPEDFRRLAMEGKFAIVMSMLNAYPLGDDLSQLDKWAARGVRMFGFSYVGNNDWADSSRPLPFFNDSPDALGGLSPLGKQAVERLNDLGVIIDVSQMSTKALEQVAALSRAPIVASHSAPRALVDIKRNLSDHEMQLIKDSGGVIQVVGFPAYLRPLSKPTLDKLDALRARFDLPPLEGLDYALMPGDPIITIWPEQRFGEYASALYGILEEEPKAGLKELVDAIDYTVKKVGIDHVGISSDFNDGGGVDGWKDVSEIRNVTAELITRGYSDADIAKLWGGNFLRAWGEVQNAPSRQPPPKGIITITTDPNSSSVDKLAAALEHHHHHH
- soluble on expression in E. coli: soluble

Sequence: MLDFKPIELKDRELFHEYLKDYDFLTYEYSFLTLYIWRKMYNTEFAIVDDTIVIKKRTANNGTYFMQPIGADKSKIADITLKLNTLRKNNPDFKYLYGDVETPFLEQLHENFGNLVTSHEDKNNFDYIFNSKDLIKLSGKKYHRKKNQYNQFIKKYDYRIEEIQSPEVIKNCIDLSLKWYDYKSLQSEQLKNEQKAIFDIFSNIKIFNNIKGIAVYVNNEIAGFAIGEKLNSKMATVHFEKGNYNFSGIYPFLNKSLVEIFFRDVEFINLQEDLGLEGLRRAKSAYQPIKLEKKYLVNI
- soluble on expression in E. coli: not soluble

Sequence: MSLPCNKHPFYQQLEQQLDTTRTEGLYKNERVITSAQQANIAVADGSRVINFCANNYLGLANHPKLIAAAKAGMDSHGFGMASVRFICGTQDIHKELEHKLASFLGMEDAILYSSCFDANGGLFETLLGPEDAIISDALNHASIIDGVRLCKAKRYRYANNDMTELEAQLKQAKAEGARHIMIATDGVFSMDGVIANLKRVCDLADEYQALVMVDDSHAVGVIGANGRGTHEYCEVMDRVDIITGTLGKALGGASGGYTAGRKELVEWLRQRSRPYLFSNSLAPAIVAASIEVLSLLEEGGALRDRLWANARLFREKMSAAGFTLAGADHAIIPVMLGEAKLAQDFANALLKEGIYVTGFFFPVVPKGQARIRTQMSAGHTTEQVERAIEAFVRIGKQLNVIA
- soluble on expression in E. coli: not soluble

Sequence: MEKVKKIVLIGASGFVGSALLNEALNRGFEVTAVVRHPEKIKIENEHLKVKKADVSSLDEVCEVCKGADAVISAFNPGWNNPDIYDETIKVYLTIIDGVKKAGVNRFLMVGGAGSLFIAPGLRLMDSGEVPENILPGVKALGEFYLNFLMKEKEIDWVFFSPAADMRPGVRTGRYRLGKDDMIVDIVGNSHISVEDYAAAMIDELEHPKHHQERFTIGYLEHHHHHH
- soluble on expression in E. coli: soluble

Sequence: KRKDITLLNPIVRKFQYGQHTVTLETGMMARQATAAVMVSMDDTAVFVTVVGQKKAKPGQDFFPLTVNYQERTYAAGRIPGSFFRREGRPSEGETLIARLIDRPIRPLFPEGFVNEVQVIATVVSVNPQVNPDIVAMIGASAALSLSGIPFNGPIGAARVGYINDQYVLNPTQDELKESKLDLVVAGTEAAVLMVESEAQLLSEDQMLGAVVFGHEQQQVVIQNINELVKEAGKPRWDWQPEPVNEALNARVAALAEARLSDAYRITDKQERYAQVDVIKSETIATLLAEDETLDENELGEILHAIEKNVVRSRVLAGEPRIDGREKDMIRGLDVRTGVLPRTHGSALFTRGETQALVTATLGTARDAQVLDELMGERTDTFLFHYNFPPYSVGETGMVGSPKRREIGHGRLAKRGVLAVMPDMDKFPYTVRVVSEITESNGSSSMASVCGASLALMDAGVPIKAAVAGIAMGLVKEGDNYVVLSDILGDEDHLGDMDFKVAGSRDGISALQMDIKIEGITKEIMQVALNQAKGARLHILGVMEQAINAPRGDISEFAPRIHTIKINPDKIKDVIGKGGSVIRALTEETGTTIEIEDDGTVKIAATDGEKAKHAIRRIEEITAEIEVGRVYTGKVTRIVDFGAFVAIGGGKEGLVHISQIADKRVEKVTDYLQMGQEVPVKVLEVDRQGRIRLSIKEATEQSQPAAAPEAPAAEQGEHHHHHH
- soluble on expression in E. coli: soluble
